The experiment deals with PtoMYB221 fused to Cub (split-ubiquitin bait) (Populus tomentosa).

As to “full-length PtoUBC34 fused to Nub (split-ubiquitin prey) (from UniProt A0A482P071 1-235) (enzyme)”, the decrease in LUC activity by 2.56 μg PtoMYB221 effector plasmid against the control without PtoMYB221, with 600 to 1200 ng PtoUBC34 (35.16% with 1200 ng; 72.66% when no exogenous PtoUBC34 was added) amounted to 54.8%.

Values taken from publication PMC6416899.
